According to PMC3752466 (Nature communications, 2013):
“And” between values parts separate entries of the source, which are not always exact repeats. Equal entries are not always repeated.

Molecular target: T1, BoNT/B-HC (binding domain of botulinum neurotoxin type B, residues 857-1291) (UniProt P10844 857-1291)
T1 sequence: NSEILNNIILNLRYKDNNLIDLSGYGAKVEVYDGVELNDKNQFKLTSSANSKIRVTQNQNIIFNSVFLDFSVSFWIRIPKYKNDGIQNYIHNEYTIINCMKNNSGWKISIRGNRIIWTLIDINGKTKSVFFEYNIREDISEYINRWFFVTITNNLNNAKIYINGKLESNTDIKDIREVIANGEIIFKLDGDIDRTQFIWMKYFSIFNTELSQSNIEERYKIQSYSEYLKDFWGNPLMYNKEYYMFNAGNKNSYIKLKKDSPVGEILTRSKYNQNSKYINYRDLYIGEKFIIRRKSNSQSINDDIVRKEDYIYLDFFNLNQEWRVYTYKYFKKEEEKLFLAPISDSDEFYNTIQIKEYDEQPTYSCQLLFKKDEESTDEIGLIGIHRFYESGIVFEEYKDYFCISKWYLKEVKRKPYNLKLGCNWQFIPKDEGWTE
Assay: ITC

Binder: GESQEDMFAKLKDKFFNEINK [rat Syt-II peptide (residue 40-60)]
- Kd: 140 nM and 180 nM
